Reference: patent publication US20130224191A1, “NOTUM PROTEIN MODULATORS AND METHODS OF USE” (priority 2010, published 2013)
Substitutions are numbered along the chain they refer to. Numbers in names are those of the source. Read-outs that look alike come from different tables or passages of the source. Each block holds one molecule with its values, some of them ahead of it.

Assays:
[1] = system: luciferase transcription in the 293.TCF cells; test: Luciferase reporter activation in 293.TCF cells; format: cell-based, human; conditions: 40 mM
From the text: To generate a stable population of cells that contain a reporter for the activation of canonical Wnt signaling, HEK 293T cells were transduced with a lentiviral vector, pGreenFirel-TCF (System Biosciences) which encodes a bifunctional GFP and luciferase reporter cassette under the control of a minimal CMV reporter linked to four tandem repeats of the transcriptional response elements for TCF. Transduced cells populations, termed 293.TCF cells, were subsequently used in a Wnt3A canonical signaling assay as follows: 2.5×10^4 293.TCF cells were plated per well of a 96-well tissue culture plate in 50 μL of serum-free DME medium. After 24 hours of serum starvation, 25 μL of various dilutions of conditioned medium (CM) from L/Wnt3A cells (ATCC CRL-2647; Willert, 2003) or undiluted CM from parental L-cells (ATCC CRL-2648) along with 25 μL of DMEM+0.2% FBS were added to each well. […] The contents of each well were then mixed thoroughly to lyse the cells, 100 μL of lysate transferred to black 96-well plates, and the luminescence in each well read after 5 mins using a Wallac Victor3 Multilabel Counter (Perkin-Elmer Corp). […] More particularly, as the Wnt3A+ CM media is diluted from 25% down to approximately 3%, activation of the Wnt pathway is reduced with a corresponding decrease in luminescence.

[2] = target: T1, Notum (Homo sapiens, UniProt Q6P988); test: 4-MUH assay, small molecule inhibition of Notum; format: biochemical; conditions: 4-MUH 240 μM or 90 μM; orlistat 0-170 μM
T1 sequence (Q6P988 20-496): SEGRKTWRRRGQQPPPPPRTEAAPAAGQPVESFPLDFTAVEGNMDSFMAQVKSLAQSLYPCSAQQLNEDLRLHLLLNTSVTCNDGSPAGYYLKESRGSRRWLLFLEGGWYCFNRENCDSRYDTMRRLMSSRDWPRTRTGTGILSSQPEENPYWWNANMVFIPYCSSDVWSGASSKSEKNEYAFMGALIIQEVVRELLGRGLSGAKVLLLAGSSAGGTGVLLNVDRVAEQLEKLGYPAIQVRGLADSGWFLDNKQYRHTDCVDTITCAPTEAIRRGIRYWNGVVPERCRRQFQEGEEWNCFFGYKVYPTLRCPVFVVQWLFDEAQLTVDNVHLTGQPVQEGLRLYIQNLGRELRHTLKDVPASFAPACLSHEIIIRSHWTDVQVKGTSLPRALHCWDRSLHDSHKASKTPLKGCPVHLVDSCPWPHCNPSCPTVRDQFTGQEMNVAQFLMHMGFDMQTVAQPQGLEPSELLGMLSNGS
Protocol: (§1) In addition to the assays described in Examples 23 and 24, a fluorescent esterase substrate, 4-methylumbelliferyl heptanoate (Sigma), can be used to measure the activity of hydrolases using standard assay conditions (Richardson and Smith, 2007, PMID: 17620441; Jacks and Kircher, 1967, PMID: 5582971). Briefly, 4-MUH was dissolved in DMSO to a final concentration of 1.2 mM. This substrate was diluted 1:10 into assay buffer (0.1M Tris, pH 7.5, 50 mM NaCl, 0.05% Brij) and incubated with defined amounts of Notum enzyme or point-mutated Notum enzymes, and enzymatic release of the fluorescent molecule 4-methylumbelliferone monitored (355 nm excitation, 460 nm emission) using a Wallac Victor3 Multilabel Counter (Perkin Elmer).
Consistent with a putative hydrolase activity for Notum, it could be hypothesized that this inactivation is related to the ability of Notum to delipidate Wnt3A. Two lipids are known to be linked to Wnt3A, a saturated palmitate chain at Cys77 and an unsaturated palmitoleoylic chain at S209 (Lorenowicz and Korswagen, 2009, PMID: 19559695). […] Therefore, the 4-MUH assay described in example 25 was performed in the presence of varying amounts of 4-MUH substrate (240 μM or 90 μM) and orlistat (0-170 μM).

[3] = target: Wnt3A (conditioned medium from L/Wnt3A cells, ATCC CRL-2647) (UniProt P27467); test: cell-based or functional assay; parameters: unit not given beside the values
Wnt3A (conditioned medium from L/Wnt3A cells, ATCC CRL-2647), sequence (P27467 19-352 limits assumed): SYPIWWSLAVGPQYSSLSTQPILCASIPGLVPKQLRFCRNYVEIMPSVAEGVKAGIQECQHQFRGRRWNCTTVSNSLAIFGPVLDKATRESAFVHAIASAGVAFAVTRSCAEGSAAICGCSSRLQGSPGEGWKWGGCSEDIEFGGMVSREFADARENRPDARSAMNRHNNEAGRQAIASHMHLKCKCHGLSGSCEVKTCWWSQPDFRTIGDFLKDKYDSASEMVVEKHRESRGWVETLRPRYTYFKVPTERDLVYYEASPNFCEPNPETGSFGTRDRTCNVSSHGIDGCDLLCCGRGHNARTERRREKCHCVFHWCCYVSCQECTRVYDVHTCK

[4] = Esterase activity of Notum proteins on chromogenic substrates; format: biochemical; conditions: 1 hour at 37° C.
Protocol: Briefly, PNPA or PNPB were dissolved/diluted in isopropanol to final concentrations of 10 mM. These substrate solutions were diluted 1:10 into assay buffer (0.1% gum arabic, 2.3 mg/mL sodium dexoycholate, 1×PBS) and incubated with defined amounts of hNotum enzyme, and the enzymatic release of the chromophore p-nitrophenol monitored by absorbance measurements at 405 nm.

[5] = system: Wnt3A-mediated induction of luciferase in the 293.TCF cells; test: Wnt3A canonical signaling assay, bioactivity of Notum constructs; format: cell-based, human
From the text: To generate a stable population of cells that contain a reporter for the activation of canonical Wnt signaling, HEK 293T cells were transduced with a lentiviral vector, pGreenFirel-TCF (System Biosciences) which encodes a bifunctional GFP and luciferase reporter cassette under the control of a minimal CMV reporter linked to four tandem repeats of the transcriptional response elements for TCF. Transduced cells populations, termed 293.TCF cells, were subsequently used in a Wnt3A canonical signaling assay as follows: 2.5×10^4 293.TCF cells were plated per well of a 96-well tissue culture plate in 50 μL of serum-free DME medium. After 24 hours of serum starvation, 25 μL of various dilutions of conditioned medium (CM) from L/Wnt3A cells (ATCC CRL-2647; Willert, 2003) or undiluted CM from parental L-cells (ATCC CRL-2648) along with 25 μL of DMEM+0.2% FBS were added to each well. Eighteen hours after addition of CM, 100 μL of One-Glo solution (ProMega Corp.) was added to each well. The contents of each well were then mixed thoroughly to lyse the cells, 100 μL of lysate transferred to black 96-well plates, and the luminescence in each well read after 5 mins using a Wallac Victor3 Multilabel Counter (Perkin-Elmer Corp). […] More particularly, as the Wnt3A+ CM media is diluted from 25% down to approximately 3%, activation of the Wnt pathway is reduced with a corresponding decrease in luminescence.
Once the luciferase reporter system was established, assays for determining the bioactivity of various Notum modulators were performed as follows. 2.5×10^4 293.TCF cells were plated per well of a 96-well tissue culture plate in 50 μL of serum-free medium. After 23 hours of serum starvation, 25 μL of DMEM+0.2% FBS containing various Notum modulators at various concentrations (e.g., hNotum-His, hNotum-hFc, hNotum-S232A-His, murine Notum-His, murine Notum-hFc, macaque Notum-hFc, control protein-His or control protein-hFc obtained as per Examples 7, 8 and 13 above), were added to the cells. After 1 hour, 25 μL of Wnt3A or control L-cell CM were added to each well. Eighteen hours after addition of CM, 100 μL of One-Glo solution (ProMega Corp.) was added to each well, the contents of each well mixed thoroughly to lyse the cells, 100 μL of lysate transferred to black 96-well plates, and the luminescence read after 5 minutes.

[6] = system: mouse lineage-depleted NTX tumor cells from SCRx-CR42; test: Cell survival/proliferation, CellTiterGlo, SCRx-CR42; format: cell-based, human; conditions: 10 μg/mL, 14 days
Protocol: (§2) To determine whether Notum protein impacts cell proliferation and/or apoptosis of human colorectal cancer cells, HCT-116 cells or mouse lineage-depleted NTX tumor cells (i.e. human tumor cells) were plated as described below and exposed to recombinant hNotum (e.g. hNotum-His or hNotum-hFc) and anti-Notum antibodies. Cell numbers were then assessed 12-14 days later.
(§3) Cells were then incubated for 14 days at 37° C., 5% CO2 and 5% O2 and the number of viable cells was assessed using Promega's CellTiterGlo assay kit per the manufacturer's instructions. For the HCT-116 cell line (a commercially available colorectal tumor cell line), cells were plated at 2,000 cells per well in DMEM+1% FBS, followed 24-hours later by the addition of serum free DMEM containing recombinant human Notum in the presence or absence of monoclonal antibodies SC2.D2.2 or SC2.10B3. HCT-116 cells were then incubated for 12 days at 37° C., 5% CO2 and cell viability was assessed with Promega's CellTiterGlo assay kit. Higher readings are indicative of higher viable cell counts.

[7] = 4-MUH fluorescent hydrolase assay, activity of Notum constructs; format: biochemical
Protocol: as §1

[8] = system: HCT-116 cells; test: Cell survival/proliferation, CellTiterGlo, HCT-116; format: cell-based, human; conditions: 10 μg/mL, 12 days
Protocol: as §2, §3

[9] = Lipase activity of hNotum, turbidometric Tween 20 lipolysis; format: biochemical
Protocol: Briefly, recombinant hNotum (1 μg/well) was added to an assay buffer containing 50 mM Tris, pH 7.4, 33.3 mM CaCl2, and 0.33% Tween-20. When the Tween 20 monolauryl group is cleaved by lipases (e.g. hNotum), the free fatty acid forms an insoluble complex with the Ca^2+ cations resulting in a turbid solution, the OD of which can be measured at 405 nm to provide a measure of lipase activity. As a positive control, the activity of porcine pancreatic lipase (Sigma Aldrich) was measured in the same assay.

Molecule: [Cl-].[Li+] [LiCl]
- activation of luciferase transcription [1]: activate luciferase transcription

Molecule: CCCCCCCCCCC[C@@H](C[C@@H]1OC(=O)[C@H]1CCCCCC)OC(=O)[C@H](CC(C)C)NC=O [orlistat]
- inhibition of hydrolysis activity of Notum upon 4MUH [2]: inhibits the hydrolysis activity of Notum upon 4MUH in a dose-dependent fashion

- IC50 of the decrease in luciferase activity (293.TCF Wnt3A assay) [3]: 0.47
Molecule: hNotum-Fc (human Notum fused to human IgG2 Fc) (Fc fusion)

B1: macaque Notum: recombinant macaque Notum protein, construct not stated (protein)
chain: SEGRKTWRRRGQQPPPPPRTEAAPAAGQPVESFPLDFTAVEGNMDSFMAQVKSLAQSLYPCSAQQLNEDLRLHLLLNTSVTCNDGSPAGYYLKESRGSRRWLLFLEGGWYCFNRENCDSRYNTMRRLMSSRDWPRTRTGTGILSSQPEENPYWWNANMVFIPYCSSDVWSGASSKSEKNEYAFMGALIIQEVVRELLGRGLSGAKVLLLAGSSAGGTGVLLNVDRVAEQLEELGYPAIQVRGLADSGWFLDNKQYRHTDCVDTITCAPTEAIRRGIRYWNGVVPERCRRQFQEGEEWNCFFGYKIYPTLRCPVFVVQWLFDEAQLTVDNVHLTGQPVQESQRLYIQNLGRELRHTLKDVPASFAPACLSHEIIIRSHWTDVQVKGTSLPRALHCWDRSLHDSHKNSKTPLKGCPVHLVDSCPWPHCNPSCPTVRDQFTGQEMNVAQFLMHMGFDVQTVAQQQGPEPSKLLGL
modifications: left off: a dimerising Fc or GST
- esterase activity [4]: display esterase activity

B2: hNotum-His: recombinant His tagged human Notum protein (protein)
chain: T1 sequence (Q6P988 20-496)
modifications: left off: small tags and cut ends
notes: recombinant His tagged human Notum protein
- antagonism of Wnt3A-mediated induction of luciferase [5]: functionally antagonize
- increase in cell counts [6]: 20-45%

B3: human-NOTUM S232A mutant: human Notum with S232A point mutation of the putative catalytic nucleophile (His and hFc) (protein, UniProt Q6P988 20-496, looked up, variant S232A)
Palmitoleoyl-protein …: T1 sequence (Q6P988 20-496) with S213A
modifications: His tag or human Fc
- antagonism of Wnt3A-mediated induction of luciferase [5]: did not antagonize
- antagonism of Wnt3A-mediated induction of luciferase ([5]; listed as S232A): no ability to antagonize
- esterase activity [4]: greatly reduced esterase activity
- hydrolysis of the 4-MUH substrate [7]: no ability to hydrolyze the 4-MUH substrate

B4: hNotum: recombinant human Notum protein (e.g. hNotum-His or hNotum-hFc) (protein)
chain: T1 sequence (Q6P988 20-496)
- antagonism of Wnt3A-mediated induction of luciferase [5]: antagonizes Wnt3A CM
- antagonism of Wnt3A-mediated induction of luciferase ([5]; listed as wild-type human Notum): can inhibit the response of the 293.TCF cells to Wnt3A in a dose-dependent fashion
- increase in cell numbers [8]: more than 2 fold
- esterase activity [4]: has carboxyesterase activity
- lipase activity [9]: capable of cleaving Tween 20 in a dose dependent fashion
- hydrolysis of the 4-MUH substrate [7]: capable of hydrolyzing the 4-MUH substrate
